Results as given in the supplement of paper PMC5998384.

Columns and labels:
HeLa Kyoto [1] = test: melting temperature (median over replicates), in situ; higher = more thermally stable
HeLa Kyoto [2] = test: solubility in G1/S (NP-40 vs SDS abundance) (log2 ratio); higher = more soluble; conditions: cell cycle stage: G1/S
HeLa Kyoto [3] = test: thermal stability score vs G1/S (z-score of summed log2 fold changes over temperatures); higher = more thermally stable than in G1/S
HeLa Kyoto [4] = test: solubility change mitosis vs G1/S (difference of NP-40 vs SDS log2 ratios) (log2 ratio difference); higher = more soluble in mitosis
[5] = cell cycle stage: early G1 (4.5 h after nocodazole release)
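Throughout, for melting temperature (median over replicates), in situ: HeLa Kyoto cells synchronized by double thymidine or nocodazole block, proteins quantified by TMT10plex mass spectrometry, three independent biological replicates.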
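Throughout, for solubility change mitosis vs G1/S (difference of NP-40 vs SDS log2 ratios): synchronized HeLa Kyoto cells (double thymidine block for G1/S, nocodazole release for mitosis), protein amounts in NP-40 versus SDS lysates quantified by mass spectrometry, three biological replicates.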
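Throughout, for solubility in G1/S (NP-40 vs SDS abundance): HeLa Kyoto cells arrested at G1/S by double thymidine block, proteins quantified by TMT10plex mass spectrometry in mild NP-40 versus SDS extracts, three biological replicates.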
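Throughout, for thermal stability score vs G1/S (z-score of summed log2 fold changes over temperatures): synchronized HeLa Kyoto cells, proteins quantified by TMT10plex mass spectrometry, three biological replicates, mitosis taken 0.5 h after nocodazole release, G1/S directly after double thymidine block.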

Sequence: MRCALALSALLLLLSTPPLLPSSPSPSPSPSQNATQTTTDSSNKTAPTPASSVTIMATDTAQQSTVPTSKANEILASVKATTLGVSSDSPGTTTLAQQVSGPVNTTVARGGGSGNPTTTIESPKSTKSADTTTVATSTATAKPNTTSSQNGAEDTTNSGGKSSHSVTTDLTSTKAEHLTTPHPTSPLSPRQPTSTHPVATPTSSGHDHLMKISSSSSTVAIPGYTFTSPGMTTTLLETVFHHVSQAGLELLTSGDLPTLASQSAGITASSVISQRTQQTSSQMPASSTAPSSQETVQPTSPATALRTPTLPETMSSSPTAASTTHRYPKTPSPTVAHESNWAKCEDLETQTQSEKQLVLNLTGNTLCAGGASDEKLISLICRAVKATFNPAQDKCGIRLASVPGSQTVVVKEITIHTKLPAKDVYERLKDKWDELKEAGVSDMKLGDQGPPEEAEDRFSMPLIITIVCMASFLLLVAALYGCCHQRLSQRKDQQRLTEELQTVENGYHDNPTLEVMETSSEMQEKKVVSLNGELGDSWIVPLDNLTKDDLDEEEDTHL [PODXL]
- melting temperature (HeLa Kyoto [1]; cell cycle stage: G1/S): 58.6 °C
- solubility in G1/S (log2) (HeLa Kyoto [2]): -0.214
- thermal stability score (HeLa Kyoto [3]; [5]): -3.38
- thermal stability score (HeLa Kyoto [3]; cell cycle stage: mitosis): -2.15
- solubility change mitosis (log2) (HeLa Kyoto [4]): -0.092

Sequence: MRCLAARVNYKTLIIICALFTLVTVLLWNKCSSDKAIQFPRRSSSGFRVDGFEKRAAASESNNYMNHVAKQQSEEAFPQEQQKAPPVVGGFNSNVGSKVLGLKYEEIDCLINDEHTIKGRREGNEVFLPFTWVEKYFDVYGKVVQYDGYDRFEFSHSYSKVYAQRAPYHPDGVFMSFEGYNVEVRDRVKCISGVEGVPLSTQWGPQGYFYPIQIAQYGLSHYSKNLTEKPPHIEVYETAEDRDKNKPNDWTVPKGCFMANVADKSRFTNVKQFIAPETSEGVSLQLGNTKDFIISFDLKFLTNGSVSVVLETTEKNQLFTIHYVSNAQLIAFKERDIYYGIGPRTSWSTVTRDLVTDLRKGVGLSNTKAVKPTKIMPKKVVRLIAKGKGFLDNITISTTAHMAAFFAASDWLVRNQDEKGGWPIMVTRKLGEGFKSLEPGWYSAMAQGQAISTLVRAYLLTKDHIFLNSALRATAPYKFLSEQHGVKAVFMNKHDWYEEYPTTPSSFVLNGFMYSLIGLYDLKETAGEKLGKEARSLYERGMESLKAMLPLYDTGSGTIYDLRHFMLGIAPNLARWDYHTTHINQLQLLSTIDESPVFKEFVKRWKSYLKGSRAKHN [GLCE]
- melting temperature (HeLa Kyoto [1]; cell cycle stage: G1/S): 53.9 °C
- melting temperature (HeLa Kyoto [1]; cell cycle stage: mitosis): 53.9 °C
- solubility in G1/S (log2) (HeLa Kyoto [2]): -0.0659
- thermal stability score (HeLa Kyoto [3]; [5]): -0.914
- thermal stability score (HeLa Kyoto [3]; cell cycle stage: mitosis): -0.99
- solubility change mitosis (log2) (HeLa Kyoto [4]): -0.162

Sequence: MREIVHIQAGQCGNQIGAKFWEVISDEHGIDPTGTYHGDSDLQLDRISVYYNEATGGKYVPRAILVDLEPGTMDSVRSGPFGQIFRPDNFVFGQSGAGNNWAKGHYTEGAELVDSVLDVVRKEAESCDCLQGFQLTHSLGGGTGSGMGTLLISKIREEYPDRIMNTFSVVPSPKVSDTVVEPYNATLSVHQLVENTDETYCIDNEALYDICFRTLKLTTPTYGDLNHLVSATMSGVTTCLRFPGQLNADLRKLAVNMVPFPRLHFFMPGFAPLTSRGSQQYRALTVPELTQQVFDAKNMMAACDPRHGRYLTVAAVFRGRMSMKEVDEQMLNVQNKNSSYFVEWIPNNVKTAVCDIPPRGLKMAVTFIGNSTAIQELFKRISEQFTAMFRRKAFLHWYTGEGMDEMEFTEAESNMNDLVSEYQQYQDATAEEEEDFGEEAEEEA [TUBB]
- melting temperature (HeLa Kyoto [1]; cell cycle stage: G1/S): 56.4 °C
- melting temperature (HeLa Kyoto [1]; cell cycle stage: mitosis): 54.4 °C
- solubility in G1/S (log2) (HeLa Kyoto [2]): 0.245
- thermal stability score (HeLa Kyoto [3]; [5]): 0.696
- thermal stability score (HeLa Kyoto [3]; cell cycle stage: mitosis): -1.83
- solubility change mitosis (log2) (HeLa Kyoto [4]): -0.117

Sequence: MREYKLVVLGSGGVGKSALTVQFVQGIFVEKYDPTIEDSYRKQVEVDCQQCMLEILDTAGTEQFTAMRDLYMKNGQGFALVYSITAQSTFNDLQDLREQILRVKDTEDVPMILVGNKCDLEDERVVGKEQGQNLARQWCNCAFLESSAKSKINVNEIFYDLVRQINRKTPVEKKKPKKKSCLLL [RAP1A]
- melting temperature (HeLa Kyoto [1]; cell cycle stage: G1/S): 58.5 °C
- melting temperature (HeLa Kyoto [1]; cell cycle stage: mitosis): 57.6 °C
- solubility in G1/S (log2) (HeLa Kyoto [2]): 0.0631
- thermal stability score (HeLa Kyoto [3]; [5]): 1.29
- thermal stability score (HeLa Kyoto [3]; cell cycle stage: mitosis): -0.46
- solubility change mitosis (log2) (HeLa Kyoto [4]): -0.0963
